The source of these data is patent US20240000892A1.

The assay has as its target IL-2 receptor (CD25, CD122 and CD132) on Kupffer cells of C57BL/6 mice (mouse (C57BL/6)) (UniProt P01590). Briefly: cell-based or functional assay.
Sequence of UniProt P01590 (P01590 22-268, chain 1 of 3): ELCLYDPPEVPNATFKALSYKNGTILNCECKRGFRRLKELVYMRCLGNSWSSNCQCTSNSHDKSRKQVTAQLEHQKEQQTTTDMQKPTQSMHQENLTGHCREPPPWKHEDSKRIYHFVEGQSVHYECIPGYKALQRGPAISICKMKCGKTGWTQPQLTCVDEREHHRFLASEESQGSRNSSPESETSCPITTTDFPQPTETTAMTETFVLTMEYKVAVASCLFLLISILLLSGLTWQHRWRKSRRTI
Sequence of UniProt P01590 (P16297 27-539, chain 2 of 3, further chain): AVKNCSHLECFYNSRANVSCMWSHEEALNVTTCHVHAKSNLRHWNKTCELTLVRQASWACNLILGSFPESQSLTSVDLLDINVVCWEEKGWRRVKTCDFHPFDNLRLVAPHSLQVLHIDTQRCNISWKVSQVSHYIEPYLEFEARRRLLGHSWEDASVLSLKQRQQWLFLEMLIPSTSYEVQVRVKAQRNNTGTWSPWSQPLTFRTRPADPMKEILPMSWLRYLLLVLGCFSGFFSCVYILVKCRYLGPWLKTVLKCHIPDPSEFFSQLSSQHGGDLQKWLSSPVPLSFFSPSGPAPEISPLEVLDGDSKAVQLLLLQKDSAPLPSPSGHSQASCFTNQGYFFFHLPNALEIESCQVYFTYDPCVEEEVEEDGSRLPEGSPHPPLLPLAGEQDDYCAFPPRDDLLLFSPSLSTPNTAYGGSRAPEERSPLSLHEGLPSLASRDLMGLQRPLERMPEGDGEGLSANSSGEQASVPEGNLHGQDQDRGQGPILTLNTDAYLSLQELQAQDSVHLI
Sequence of UniProt P01590 (P34902 23-369, chain 3 of 3, further chain): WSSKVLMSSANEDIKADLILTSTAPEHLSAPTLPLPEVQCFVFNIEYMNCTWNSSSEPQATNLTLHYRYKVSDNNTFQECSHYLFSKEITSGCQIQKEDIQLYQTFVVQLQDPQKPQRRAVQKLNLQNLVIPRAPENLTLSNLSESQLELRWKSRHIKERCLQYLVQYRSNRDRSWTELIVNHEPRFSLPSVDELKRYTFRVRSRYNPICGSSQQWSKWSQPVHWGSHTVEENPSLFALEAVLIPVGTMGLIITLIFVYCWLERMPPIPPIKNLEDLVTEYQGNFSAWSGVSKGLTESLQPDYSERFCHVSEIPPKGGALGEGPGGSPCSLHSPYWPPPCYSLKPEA

Turning to “recombinant IL-2 (402 ML/CF, R&D Systems) (from UniProt P04351 21-169) (ligand)”, the IL-2-dependent fold change in STAT5 phosphorylation in KCs, compared with CD4+ FoxP3+ splenic T regulatory cells is 10 fold lower.
